Results as given in article PMC6182170.

How the values were obtained:
[1] = target: T1, ADR-1 WT (Caenorhabditis elegans) (UniProt Q9U3D6); test: EMSA; details: EMSA: 20 pM dsRNA, 50 mM KCl, 10 mM Tris-HCl pH 8.0, 10% glycerol, 1 mM MgCl2, 0.5 mM DTT, on ice 30 min; native 6% gel, 0.5x TBE, 4 C
T1 sequence: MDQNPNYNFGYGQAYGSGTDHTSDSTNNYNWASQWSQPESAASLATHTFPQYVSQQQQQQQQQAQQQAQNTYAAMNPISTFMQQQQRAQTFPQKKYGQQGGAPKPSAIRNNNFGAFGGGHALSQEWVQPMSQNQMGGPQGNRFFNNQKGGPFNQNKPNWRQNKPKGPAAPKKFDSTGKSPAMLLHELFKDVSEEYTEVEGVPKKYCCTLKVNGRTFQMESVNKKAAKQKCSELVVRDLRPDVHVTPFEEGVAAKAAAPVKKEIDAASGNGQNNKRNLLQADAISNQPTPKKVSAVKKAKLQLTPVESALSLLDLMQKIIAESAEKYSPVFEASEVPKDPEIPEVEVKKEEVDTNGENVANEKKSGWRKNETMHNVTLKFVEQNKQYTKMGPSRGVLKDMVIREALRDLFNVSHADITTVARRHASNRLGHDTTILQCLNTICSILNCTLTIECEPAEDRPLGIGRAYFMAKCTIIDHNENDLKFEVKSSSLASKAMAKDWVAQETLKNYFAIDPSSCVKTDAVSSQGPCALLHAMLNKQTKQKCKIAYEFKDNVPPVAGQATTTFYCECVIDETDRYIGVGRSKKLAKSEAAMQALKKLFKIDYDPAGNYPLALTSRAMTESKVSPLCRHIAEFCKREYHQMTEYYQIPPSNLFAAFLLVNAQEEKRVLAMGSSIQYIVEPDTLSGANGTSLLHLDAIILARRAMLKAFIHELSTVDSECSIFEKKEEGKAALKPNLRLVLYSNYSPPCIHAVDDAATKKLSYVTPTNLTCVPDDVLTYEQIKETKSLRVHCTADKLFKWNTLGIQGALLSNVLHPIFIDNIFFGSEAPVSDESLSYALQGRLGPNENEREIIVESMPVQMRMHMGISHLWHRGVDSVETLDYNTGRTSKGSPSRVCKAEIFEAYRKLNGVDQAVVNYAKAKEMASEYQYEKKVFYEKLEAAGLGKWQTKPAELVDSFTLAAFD

[2] = target: ADR-2 WT (Caenorhabditis elegans) (UniProt Q22618); test: EMSA; details: EMSA: 20 pM dsRNA, 50 mM KCl, 10 mM Tris-HCl pH 8.0, 10% glycerol, 1 mM MgCl2, 0.5 mM DTT, on ice 30 min; native 6% gel, 0.5x TBE, 4 C
ADR-2 WT (Caenorhabditis elegans), sequence (Q22618 whole entry): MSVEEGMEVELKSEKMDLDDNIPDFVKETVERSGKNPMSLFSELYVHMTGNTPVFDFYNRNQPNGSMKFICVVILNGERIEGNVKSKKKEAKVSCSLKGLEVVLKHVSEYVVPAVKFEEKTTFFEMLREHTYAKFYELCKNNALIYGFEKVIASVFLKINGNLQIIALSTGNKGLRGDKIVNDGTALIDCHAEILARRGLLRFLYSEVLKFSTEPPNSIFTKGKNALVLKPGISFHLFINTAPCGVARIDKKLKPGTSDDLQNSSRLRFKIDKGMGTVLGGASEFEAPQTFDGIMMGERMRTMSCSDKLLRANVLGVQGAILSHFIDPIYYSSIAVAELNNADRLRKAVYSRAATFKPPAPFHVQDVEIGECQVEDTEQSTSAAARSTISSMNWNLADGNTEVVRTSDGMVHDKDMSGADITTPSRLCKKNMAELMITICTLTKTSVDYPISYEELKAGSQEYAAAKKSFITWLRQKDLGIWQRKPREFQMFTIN

Sequence: UUAUUAGGUCGGCAAAUAAUUAUUGACGUGUUUUGCCAAUUAACGAUUUUUUGUAAAUUUUAUAUGUGUCUCUUACAGUAAACCGAGAGUGUAUAAAAGCAUAUGAAUAUCAGUUGCUUUGGUCAUCUGAGUAGUAAUACGAUUCGAAAAAAUCGAAAAGUUUUUUUUCCAAUUUUUUGAGUUAGCCGUGAGAGUUG / CAACUCUUCACAGCUAACUCAAAAAAUCGCGAAAAGCAUUUUUCAAAAAAUUUUUGAUUUUUUAGAUUCUUAAUACUACGCAGGUAGCCAAAGUAGCUGAUAUUUUUAUGUUUUCAUACAUUCACAUUUUACUAUAAGACACACAUACAAAAUUUACAAAAAUUGUUAAUUGACAAAAUACGUCAAUAAUUAUUUGUCUACCUAAUAA [lam-2 3'UTR 200 bp dsRNA]
- Kd [1]: 0.43 nM
- Kd [2]: 76.3 nM
